Changes are numbered by the printed parent chain.
T1: human MSLN-R1-his protein (human, UniProt Q13421 296-390)
T1 construct: Region 1 of human mesothelin, made in HEK293E cells, His-tagged; also called human MSLN-R1 protein; hMSLN-R1-his; not shown: His tag
T1 chain: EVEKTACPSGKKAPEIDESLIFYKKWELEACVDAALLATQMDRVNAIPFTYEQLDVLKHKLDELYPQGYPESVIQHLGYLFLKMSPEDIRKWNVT

B1: S009-F8-18.9 (antibody, human IgG1, kappa, V domains shown)
VH: EFQLQQSGPELVKPGASVKISCKASGYSFTDYNMNWVKQSNGKSLEWIGIINPNYGTTSYNQKFKGRATLTVDQSSSTAYVQLNSLTSEDSAVYYCARGGYDNEAMDYWGQGTSVTVSS
VL: QIVLTQSPAIMSASPGEKVTMTCSASSSVSYMHWYQQKSGTSPKRWIYDTSKLASGVPARFSGSGSGTSYSLTISSMEAEDAATYYCQQWSSNPPTFGAGTKLELKR
B2: S009-F8-19.21 (antibody, human IgG1, kappa, V domains shown)
VH: B1 VH with A24T, I50V, S59G, R67K, V81M, N103G, Q111H
VL: B1 VL with S30N, N93Y, A99G, L105I
B3: S009-F8-13.8 (antibody, human IgG1, kappa, V domains shown)
VH: EFQLQQSGPELVKPGASVKISCKASGYSFTDYNMNWVKQTNGKSLEWIGIINPNYGTSSYNQKFKGKATLTVDQSSSTAYMQLNSLTSEDSAVYYCARVGRDNSGFDYWGQGTTLTVSS
VL: QIVLTQSPAIMSASPGEKVTMTCSASSSVSYMYWYQQKPGSSPRLLIYDTSNLASGVPVRFSGSGSGTSYSLTISRMEAEDAATYYCQQWSSYPPTFGSGTELEIKR

Target: T1, human MSLN-R1-his protein
Experiment: ELISA on coated MSLN-R1; antibody 1 nM

Point of comparison: B1, OD450 1.96 OD450. Against it:
- B2 — lower, 1.82 OD450
- B3 — lower, 1.8 OD450

Target: T2, human MSLN-R2-his protein (human, UniProt Q13421 391-486)
T2 construct: Region 2 of human mesothelin, made in HEK293E cells, His-tagged; also called human MSLN-R2 protein; hMSLN-R2-his; not shown: His tag
T2 sequence (Q13421 other isoform, or with tags, fused parts or gaps): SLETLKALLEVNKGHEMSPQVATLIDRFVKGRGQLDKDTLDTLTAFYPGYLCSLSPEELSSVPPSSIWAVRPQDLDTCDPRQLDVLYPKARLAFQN
Experiment: ELISA on coated MSLN-R2; antibody 1 nM

Point of comparison: B1, OD450 0.05 OD450. Against it:
- B2 — the same, 0.05 OD450
- B3 — lower, 0.04 OD450

Target: T3, human MSLN-R3-his protein (human, UniProt Q13421 487-598)
T3 construct: Region 3 of human mesothelin, made in HEK293E cells, His-tagged; also called human MSLN-R3 protein; hMSLN-R3-his; not shown: His tag
T3 sequence (Q13421 495-606): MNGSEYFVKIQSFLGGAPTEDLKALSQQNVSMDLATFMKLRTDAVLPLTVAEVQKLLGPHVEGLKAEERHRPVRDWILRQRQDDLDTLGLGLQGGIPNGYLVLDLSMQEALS
Experiment: ELISA on coated MSLN-R3; antibody 1 nM

Point of comparison: B1, OD450 0.05 OD450. Against it:
- B2 — lower, 0.04 OD450
- B3 — lower, 0.04 OD450

Target: T1, human MSLN-R1-his protein
Experiment: ELISA on coated MSLN-R1; antibody 10 nM
Description: (§1) The plate was sealed with a plastic film and incubated at 4° C. overnight. The next day, the plate was washed twice with PBST, and a blocking buffer [PBS+2% (w/w) BSA] was added for blocking at room temperature for 2 h. The blocking buffer was discarded, and a chimeric antibody or negative control antibody serially diluted from 100 nM was added at 50 μL/well. After incubation at 37° C. for 2 h, the plate was washed 3 times with PBST. […] After incubation at 37° C. for 2 h, the plate was washed 5 times with PBST. A TMB substrate was added at 50 μL/well for incubation at room temperature for 5-10 min, and then a stop solution (1.0 N HCl) was added at 50 μL/well.

Point of comparison: B3, OD450 2.1 OD450. Against it:
- B1 — higher, 2.12 OD450
- B2 — higher, 2.11 OD450

Target: T2, human MSLN-R2-his protein
Experiment: ELISA on coated MSLN-R2; antibody 10 nM

Point of comparison: B3, OD450 0.05 OD450. Against it:
- B1 — higher, 0.06 OD450
- B2 — higher, 0.06 OD450

Target: T3, human MSLN-R3-his protein
Experiment: ELISA on coated MSLN-R3; antibody 10 nM
Description: as §1

Point of comparison: B3, OD450 0.05 OD450. Against it:
- B1 — higher, 0.06 OD450
- B2 — the same, 0.05 OD450

Target: T1, human MSLN-R1-his protein
Experiment: ELISA on coated MSLN-R1; antibody 0.1 nM
Description: as §1

Point of comparison: B2, OD450 1.46 OD450. Against it:
- B1 — higher, 1.73 OD450
- B3 — lower, 1.26 OD450

Target: T1, human MSLN-R1-his protein
Experiment: ELISA on coated MSLN-R1; antibody 100 nM
Description: as §1

Point of comparison: B3, OD450 2.35 OD450. Against it:
- B1 — lower, 2.15 OD450
- B2 — lower, 2.13 OD450

Target: T2, human MSLN-R2-his protein
Experiment: ELISA on coated MSLN-R2; antibody 0.1 nM
Description: as §1

Point of comparison: B1, OD450 0.04 OD450. Against it:
- B2 — the same, 0.04 OD450
- B3 — higher, 0.05 OD450

Target: T2, human MSLN-R2-his protein
Experiment: ELISA on coated MSLN-R2; antibody 100 nM
Description: as §1

Point of comparison: B1, OD450 0.08 OD450. Against it:
- B2 — lower, 0.06 OD450
- B3 — lower, 0.06 OD450

Target: T3, human MSLN-R3-his protein
Experiment: ELISA on coated MSLN-R3; antibody 0.1 nM

Point of comparison: B3, OD450 0.04 OD450. Against it:
- B1 — the same, 0.04 OD450
- B2 — the same, 0.04 OD450

Target: T3, human MSLN-R3-his protein
Experiment: ELISA on coated MSLN-R3; antibody 100 nM
Description: as §1

Point of comparison: B1, OD450 0.1 OD450. Against it:
- B2 — lower, 0.09 OD450
- B3 — lower, 0.06 OD450

Target: T1, human MSLN-R1-his protein
Experiment: ELISA on coated MSLN-R1; antibody 0.01 nM
Description: as §1

Point of comparison: B1, OD450 0.62 OD450. Against it:
- B2 — lower, 0.39 OD450
- B3 — lower, 0.28 OD450

Target: T2, human MSLN-R2-his protein
Experiment: ELISA on coated MSLN-R2; antibody 0.01 nM
Description: as §1

Point of comparison: B3, OD450 0.04 OD450. Against it:
- B1 — the same, 0.04 OD450
- B2 — the same, 0.04 OD450

Target: T3, human MSLN-R3-his protein
Experiment: ELISA on coated MSLN-R3; antibody 0.01 nM
Description: as §1

Point of comparison: B2, OD450 0.04 OD450. Against it:
- B1 — the same, 0.04 OD450
- B3 — the same, 0.04 OD450

Target: T1, human MSLN-R1-his protein
Experiment: ELISA on coated MSLN-R1; antibody 0.001 nM
Description: as §1

Point of comparison: B2, OD450 0.1 OD450. Against it:
- B1 — higher, 0.15 OD450
- B3 — lower, 0.08 OD450

Target: T2, human MSLN-R2-his protein
Experiment: ELISA on coated MSLN-R2; antibody 0.001 nM

Point of comparison: B2, OD450 0.04 OD450. Against it:
- B1 — the same, 0.04 OD450
- B3 — higher, 0.05 OD450

Target: T3, human MSLN-R3-his protein
Experiment: ELISA on coated MSLN-R3; antibody 0.001 nM

Point of comparison: B1, OD450 0.05 OD450. Against it:
- B2 — lower, 0.04 OD450
- B3 — the same, 0.05 OD450

Target: T1, human MSLN-R1-his protein
Experiment: ELISA on coated MSLN-R1; antibody 0.0001 nM
Description: as §1

Point of comparison: B1, OD450 0.06 OD450. Against it:
- B2 — the same, 0.06 OD450
- B3 — lower, 0.05 OD450

Target: T2, human MSLN-R2-his protein
Experiment: ELISA on coated MSLN-R2; antibody 0.0001 nM

Point of comparison: B2, OD450 0.05 OD450. Against it:
- B1 — lower, 0.04 OD450
- B3 — the same, 0.05 OD450

Target: T3, human MSLN-R3-his protein
Experiment: ELISA on coated MSLN-R3; antibody 0.0001 nM

Point of comparison: B3, OD450 0.04 OD450. Against it:
- B1 — the same, 0.04 OD450
- B2 — the same, 0.04 OD450

Target: T1, human MSLN-R1-his protein
Experiment: ELISA on coated MSLN-R1; no antibody (blank)

Point of comparison: B2, OD450 0.05 OD450. Against it:
- B1 — the same, 0.05 OD450
- B3 — the same, 0.05 OD450

Target: T2, human MSLN-R2-his protein
Experiment: ELISA on coated MSLN-R2; no antibody (blank)

Point of comparison: B3, OD450 0.05 OD450. Against it:
- B1 — the same, 0.05 OD450
- B2 — the same, 0.05 OD450

Target: T3, human MSLN-R3-his protein
Experiment: ELISA on coated MSLN-R3; no antibody (blank)

Point of comparison: B1, OD450 0.05 OD450. Against it:
- B2 — the same, 0.05 OD450
- B3 — the same, 0.05 OD450

Reference: patent US20250250357A1 (NANJING ZAIMING PHARMACEUTICAL, published 2025)
